Data taken from patent publication US9663815B2, “Cytosolically-active peroxidases as reporters for microscopy” (Massachusetts Institute of Technology, priority 2011, dated 2017).

How the values were obtained:
HEK293T cells = experiment: Amplex UltraRed labeling (resorufin fluorescence) of cells expressing peroxidase; format: cell-based
Method: The expression and activity of wild-type (wt) APX was tested using immunostaining and Amplex UltraRed, a fluorogenic peroxidase substrate, in three cellular compartments: cytosol, mitochondrial matrix, and endoplasmic reticulum (ER). APX was differentially expressed in each compartment using at least the constructs described in Table 3. For comparison, HRP was tested in the same locations. Activity was monitored through visualization of resorufin, the fluorescent product of Amplex UltraRed oxidation by HRP or APX (scheme in FIG. 7). […] When live cells were imaged immediately after Amplex UltraRed labeling, resorufin fluorescence was seen throughout the entire cell. After fixation, however, the majority of the resorufin diffused out of the cells, and resorufin fluorescence remained only in the compartment in which APX was expressed. (Note that Amplex UltraRed, a proprietary derivative of Amplex Red, was used rather than Amplex Red in this example).
Further, Amplex UltraRed labeling and immunostaining of wtAPX, APX^W41F, mAPX, and APEX was performed on transfected HEK293T cells. Amplex UltraRed labeling was performed for 6 minutes. All APX variants were expressed with a C-terminal nuclear export signal (NES, see Table 3). […]

[1] = Guaiacol activity assay (Michaelis-Menten kinetics); format: biochemical; settings: guaiacol as substrate, purified enzyme
Method: Data points represent the mean±standard deviation of 2-3 independent measurements. Initial rates are shown as a function of guaiacol concentration. H2O2 concentration was 90 μM, and enzyme concentration was 20 nM in all trials. Oxidation to tetraguaiacol was monitored by absorbance at 470 nm (ε470=22×10^3 M^−1 cm^−1)^2.
High activity toward guaiacol generally correlated well with robust polymerization of DAB in vitro. Guaiacol assays were performed on a Nanodrop 2000c UV-vis spectrophotometer (Thermo Scientific) using its cuvette reader. HRP (Sigma) was prepared as a 10 μM stock in PBS, flash frozen and stored at −80° C., and thawed immediately before use. Guaiacol peroxidase activity was measured according to the protocol of Lad et. al.^35 Oxidation to tetraguaiacol was monitored by absorbance at 470 nm (ε470=22×10^3 M^−1 cm^−1). Kcat and KM were calculated by nonlinear regression fitting to the Michaelis-Menten equation using OriginPro (OriginLab Corporation). All values are reported as the mean±standard deviation for 2-3 independent Michaelis-Menten fittings, with each fitting using at least 5 values of substrate concentration ranging between 0.25 and 30 mM.
In order to improve the performance of mAPX in mammalian cells, monomeric APX was engineered with improved activity toward DAB in the hope that faster kinetics could compensate for diminished heme binding. The substrate binding site of APX was compared to that of HRP, which has faster kinetics and broader aromatic substrate tolerance (Henriksen, et. al., Journal of Biological Chemistry 274, 35005-35011 (1999)). In order to make APX more HRP-like, seven mutants of APX were designed that incorporated mostly aromatic residues into the active site (FIG. 5a). A colorimetric assay was employed using guaiacol, a prototypical aromatic peroxidase substrate, to determine Michaelis-Menten parameters (Kumar, et. al., Journal of Cell Science 108, 3725-3734 (1995); Henriksen, et. al., Journal of Biological Chemistry 274, 35005-35011 (1999)) (FIG. 5b and FIG. 10). […]

| Molecule | peroxidase activity toward Amplex UltraRed (resorufin) (HEK293T cells; expressed in cytosol, mitochondrial matrix and endoplasmic reticulum (ER)) | activity in vitro (guaiacol) [1] | activity toward Amplex UltraRed (HEK293T cells; cytosol (NES), HEK293T, labeling 6 minutes) |
| --- | --- | --- | --- |
| wt APX: pea cytosolic ascorbate peroxidase (Pisum sativum), wild type, about 28 kD, dimeric (protein, listed as Pisum sativum) MGKSYPTVSPDYQKAIEKAKRKLRGFIAEKKCAPLILRLAWHSAGTFDSKTKTGGPFGTIKHQAELAHGANNGLDIAVRLLEPIKEQFPIVSYADFYQLAGVVAVEITGGPEVPFHPGREDKPEPPPEGRLPDATKGSDHLRDVFGKAMGLSDQDIVALSGGHTIGAAHKERSGFEGPWTSNPLIFDNSYFTELLTGEKDGLLQLPSDKALLTDSVFRPLVEKYAADEDVFFADYAEAHLKLSELGFAEA | active in all contexts | equally active |  |
| mAPX: double mutant K14D/E112K of pea APX (SEQ ID NO:1), monomeric (protein, listed as Pisum sativum) MGKSYPTVSPDYQDAIEKAKRKLRGFIAEKKCAPLILRLAWHSAGTFDSKTKTGGPFGTIKHQAELAHGANNGLDIAVRLLEPIKEQFPIVSYADFYQLAGVVAVEITGGPKVPFHPGREDKPEPPPEGRLPDATKGSDHLRDVFGKAMGLSDQDIVALSGGHTIGAAHKERSGFEGPWTSNPLIFDNSYFTELLTGEKDGLLQLPSDKALLTDSVFRPLVEKYAADEDVFFADYAEAHLKLSELGFAEA |  | equally active | less active than wt APX |
